Protein stability index data for 94 variants are collected here from the supplement of paper PMC10567573.

B1: TRIM35 (parent)
chain: DKELLCCSCQADPRHQGHRVQPVK
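Note: lentivirally expressed fusions sorted by FACS into six bins by GFP to DsRed ratio, PSI derived from sequencing read proportions per bin multiplied by bin number.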

This data set covers variants of B1. Briefly: protein stability index of a GFP-peptide fusion (GPS, HEK-293T) (PSI 1-6); higher = more stable. Particulars: c terminus: a fixed tail appended.
Consider DKELLCCSCQADPRHQGHRVQPDK [V23D], for which the protein stability index turned out to be 4.19.
In the case of DKELLCCSCQADPRHQGHRVQPYK [V23Y], the protein stability index is 2.96.
For the variant DKELLCCSCQADPRHQGHRVQPWK [V23W], the protein stability index was 2.19.
The result for DKELLCCSCQADPRHQGHRVQPVI [K24I] reads 2.73; that for DKELLCCSCQADPRHQGHRVQPVP [K24P], 3.46; that for DKELLCCSCQADPRHQGHRVQPVW [K24W], 2.53.
Regarding DKELLCCSCQADPRHQGHRVQPVN [K24N], the protein stability index worked out at 3.04.
The result for DKELLCCSCQADPRHQGHRVQPVS [K24S] reads 3.52; that for DKELLCCSCQADPRHQGHRVQPVY [K24Y], 2.79; that for DKELLCCSCQADPRHQGHRVQPVC [K24C], 3.18.
For the variant DKELLCCSCQADPRHQGHRVQPVH [K24H], the protein stability index is 3.38.
On to DKELLCCSCQADPRHQGHRVQPVE [K24E], for which the protein stability index came to 3.81.
On to DKELLCCSCQADPRHQGHRVQPVV [K24V], for which the protein stability index came out at 2.92.
Turning to DKELLCCSCQADPRHQGHRVQPVT [K24T], the protein stability index was determined as 3.31.
DKELLCCSCQADPRHQGHRVQPVQ [K24Q]: the protein stability index amounted to 3.77.
For DKELLCCSCQADPRHQGHRVQPVR [K24R], the protein stability index was found to be 2.82.
The result for DKELLCCSCQADPRHQGHRVQPVD [K24D] reads 4.05; that for DKELLCCSCQADPRHQGHRVQPVM [K24M], 3.29.
The result for DKELLCCSCQADPRHQGHRVQPVA [K24A] reads 2.87.
The result for DKELLCCSCQADPRHQGHRVQPVL [K24L] reads 2.65.
DKELLCCSCQADPRHQGHRVQPVF [K24F]: the protein stability index was 3.79.
For DKELLCCSCQADPRHQGHRVQPVG [K24G], the protein stability index is 3.63.
DKELLCCSCQADPRHQLHRVQPVK [G17L]: the protein stability index is 3.35.
For the variant DKELLCCSCQADPRHQRHRVQPVK [G17R], the protein stability index was found to be 3.84.
With DKELLCCSCQADPRHQNHRVQPVK [G17N], the protein stability index is 3.82.
For the variant DKELLCCSCQADPRHQPHRVQPVK [G17P], the protein stability index turned out to be 3.12.
As to DKELLCCSCQADPRHQQHRVQPVK [G17Q], the protein stability index amounted to 3.59.
The result for DKELLCCSCQADPRHQAHRVQPVK [G17A] reads 3.19.
Take DKELLCCSCQADPRHQMHRVQPVK [G17M]: the protein stability index is 2.88.
For the variant DKELLCCSCQADPRHQSHRVQPVK [G17S], the protein stability index was 3.66.
As for DKELLCCSCQADPRHQTHRVQPVK [G17T], the protein stability index amounted to 3.78.
For DKELLCCSCQADPRHQHHRVQPVK [G17H], the protein stability index is 3.95.
For the variant DKELLCCSCQADPRHQEHRVQPVK [G17E], the protein stability index was 4.17.
For the variant DKELLCCSCQADPRHQWHRVQPVK [G17W], the protein stability index was determined as 2.67.
As for DKELLCCSCQADPRHQYHRVQPVK [G17Y], the protein stability index stood at 3.37.
With DKELLCCSCQADPRHQFHRVQPVK [G17F], the protein stability index amounted to 3.49.
Turning to DKELLCCSCQADPRHQCHRVQPVK [G17C], the protein stability index was 4.33.
As for DKELLCCSCQADPRHQDHRVQPVK [G17D], the protein stability index was determined as 3.88.
In the case of DKELLCCSCQADPRHQKHRVQPVK [G17K] it was 3.99.
In the case of DKELLCCSCQADPRHQIHRVQPVK [G17I], the protein stability index turned out to be 3.48.
Consider DKELLCCSCQADPRHQVHRVQPVK [G17V], for which the protein stability index came to 3.08.
Take DKELLCCSCQADPRHQGHLVQPVK [R19L]: the protein stability index came to 3.52.
As for DKELLCCSCQADPRHQGHCVQPVK [R19C], the protein stability index worked out at 3.63.
With DKELLCCSCQADPRHQGHHVQPVK [R19H], the protein stability index stood at 3.17.
With DKELLCCSCQADPRHQGHVVQPVK [R19V], the protein stability index stood at 3.84.
The result for DKELLCCSCQADPRHQGHYVQPVK [R19Y] reads 3.16; that for DKELLCCSCQADPRHQGHAVQPVK [R19A], 3.62.
With DKELLCCSCQADPRHQGHMVQPVK [R19M], the protein stability index came to 3.71.
In the case of DKELLCCSCQADPRHQGHPVQPVK [R19P], the protein stability index was 3.73.
As for DKELLCCSCQADPRHQGHDVQPVK [R19D], the protein stability index stood at 4.79.
On to DKELLCCSCQADPRHQGHKVQPVK [R19K], for which the protein stability index is 3.56.
The result for DKELLCCSCQADPRHQGHFVQPVK [R19F] reads 2.66; that for DKELLCCSCQADPRHQGHEVQPVK [R19E], 4.33; that for DKELLCCSCQADPRHQGHGVQPVK [R19G], 3.63.
In the case of DKELLCCSCQADPRHQGHWVQPVK [R19W] it was 2.78; in that of DKELLCCSCQADPRHQGHNVQPVK [R19N], 3.73; in that of DKELLCCSCQADPRHQGHIVQPVK [R19I], 3.19.
Regarding DKELLCCSCQADPRHQGHQVQPVK [R19Q], the protein stability index amounted to 3.67.
Take DKELLCCSCQADPRHQGHTVQPVK [R19T]: the protein stability index came to 3.01.
As to DKELLCCSCQADPRHQGHSVQPVK [R19S], the protein stability index turned out to be 3.73.
As for DKELLCCSCQADPRHQGDRVQPVK [H18D], the protein stability index amounted to 3.91.
Consider DKELLCCSCQADPRHQGNRVQPVK [H18N], for which the protein stability index was 3.98.
Take DKELLCCSCQADPRHQGRRVQPVK [H18R]: the protein stability index turned out to be 3.6.
DKELLCCSCQADPRHQGTRVQPVK [H18T]: the protein stability index was determined as 3.88.
In the case of DKELLCCSCQADPRHQGPRVQPVK [H18P] it was 2.6; in that of DKELLCCSCQADPRHQGSRVQPVK [H18S], 4.38.
In the case of DKELLCCSCQADPRHQGVRVQPVK [H18V], the protein stability index came out at 2.73.
DKELLCCSCQADPRHQGARVQPVK [H18A]: the protein stability index worked out at 3.89.
As to DKELLCCSCQADPRHQGCRVQPVK [H18C], the protein stability index came to 2.75.
In the case of DKELLCCSCQADPRHQGMRVQPVK [H18M] it was 3.97.
The result for DKELLCCSCQADPRHQGIRVQPVK [H18I] reads 3.9; that for DKELLCCSCQADPRHQGLRVQPVK [H18L], 3.65; that for DKELLCCSCQADPRHQGKRVQPVK [H18K], 4.16.
In the case of DKELLCCSCQADPRHQGWRVQPVK [H18W] it was 4.14.
DKELLCCSCQADPRHQGQRVQPVK [H18Q]: the protein stability index turned out to be 3.29.
Turning to DKELLCCSCQADPRHQGGRVQPVK [H18G], the protein stability index amounted to 4.1.
In the case of DKELLCCSCQADPRHQGHRVLPVK [Q21L] it was 3.15.
On to DKELLCCSCQADPRHQGHRVPPVK [Q21P], for which the protein stability index worked out at 3.56.
The result for DKELLCCSCQADPRHQGHRVNPVK [Q21N] reads 4.
For DKELLCCSCQADPRHQGHRVTPVK [Q21T], the protein stability index worked out at 1.96.
As for DKELLCCSCQADPRHQGHRVMPVK [Q21M], the protein stability index was determined as 3.68.
As to DKELLCCSCQADPRHQGHRVWPVK [Q21W], the protein stability index was 2.52.
On to DKELLCCSCQADPRHQGHRVGPVK [Q21G], for which the protein stability index turned out to be 3.28.
The result for DKELLCCSCQADPRHQGHRVKPVK [Q21K] reads 3.74; that for DKELLCCSCQADPRHQGHRVIPVK [Q21I], 2.65; that for DKELLCCSCQADPRHQGHRVEPVK [Q21E], 4.26.
Regarding DKELLCCSCQADPRHQGHRVDPVK [Q21D], the protein stability index was 4.05.
With DKELLCCSCQADPRHQGHRVFPVK [Q21F], the protein stability index was found to be 2.79.
As to DKELLCCSCQADPRHQGHRVAPVK [Q21A], the protein stability index was 3.79.
Consider DKELLCCSCQADPRHQGHRVYPVK [Q21Y], for which the protein stability index amounted to 2.91.
DKELLCCSCQADPRHQGHRVHPVK [Q21H]: the protein stability index worked out at 3.61.
The result for DKELLCCSCQADPRHQGHRVSPVK [Q21S] reads 3.96.
For DKELLCCSCQADPRHQGHRVRPVK [Q21R], the protein stability index worked out at 3.71.
Consider DKELLCCSCQADPRHQGHRVCPVK [Q21C], for which the protein stability index amounted to 3.92.
